Reference: article PMC6392109

Biological target: T1, YFP-DAT, Q01959
T1 chain: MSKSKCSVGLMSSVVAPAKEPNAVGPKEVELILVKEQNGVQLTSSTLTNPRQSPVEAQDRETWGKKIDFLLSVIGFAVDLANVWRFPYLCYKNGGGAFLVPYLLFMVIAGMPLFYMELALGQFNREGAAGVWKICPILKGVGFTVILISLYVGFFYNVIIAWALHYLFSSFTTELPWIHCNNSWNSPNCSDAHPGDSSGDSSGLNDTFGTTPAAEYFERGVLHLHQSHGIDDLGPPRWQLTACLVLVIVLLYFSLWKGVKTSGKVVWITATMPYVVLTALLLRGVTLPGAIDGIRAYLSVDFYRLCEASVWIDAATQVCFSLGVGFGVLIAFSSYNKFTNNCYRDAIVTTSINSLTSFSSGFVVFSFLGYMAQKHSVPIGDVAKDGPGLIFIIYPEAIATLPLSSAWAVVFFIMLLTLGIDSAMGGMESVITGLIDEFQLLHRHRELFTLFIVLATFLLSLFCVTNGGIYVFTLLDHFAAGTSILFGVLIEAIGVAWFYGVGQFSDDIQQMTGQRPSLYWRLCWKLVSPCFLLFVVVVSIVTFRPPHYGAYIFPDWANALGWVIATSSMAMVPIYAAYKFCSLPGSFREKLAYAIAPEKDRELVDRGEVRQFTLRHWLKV
Test: FRET or BRET; CFP- and YFP-labelled proteins co-expressed in HEK293 cells; three-filter method, 63x oil immersion objective; FRET efficiency, n = 20-30 per group
Conditions: remark: other sources report otherwise

FRET efficiency: 7.62
B1: CFP-Flot1, O75955 1-427 (natural protein)
chain: MFFTCGPNEAMVVSGFCRSPPVMVAGGRVFVLPCIQQIQRISLNTLTLNVKSEKVYTRHGVPISVTGIAQVKIQGQNKEMLAAACQMFLGKTEAEIAHIALETLEGHQRAIMAHMTVEEIYKDRQKFSEQVFKVASSDLVNMGISVVSYTLKDIHDDQDYLHSLGKARTAQVQKDARIGEAEAKRDAGIREAKAKQEKVSAQYLSEIEMAKAQRDYELKKAAYDIEVNTRRAQADLAYQLQVAKTKQQIEEQRVQVQVVERAQQVAVQEQEIARREKELEARVRKPAEAERYKLERLAEAEKSQLIMQAEAEAASVRMRGEAEAFAIGARARAEAEQMAKKAEAFQLYQEAAQLDMLLEKLPQVAEEISGPLTSANKITLVSSGSGTMGAAKVTGEVLDILTRLPESVERLTGVSISQVNHKPLRTA
